Source: patent US20190375823A1

Assays:
CD3 on Jurkat T cells = CD3 on Jurkat T cells (UniProt P07766); test: cell-based or functional assay
CD19 on Raji B cells = CD19 on Raji B cells (UniProt P15391); test: cell-based or functional assay
[1] = molecular target: HER2 and HER3 on cells (MALME-3M or SKOV cells); test: FACS on SKOV-3 cells, FITC-labeled anti-HSA detection
[2] = molecular target: HER2 and HER3 on cells (MALME-3M or SKOV cells); test: FACS on MALME-3M cells (2012529), FITC-labeled anti-HSA antibodies
[3] = molecular target: HER2 and HER3 on cells (MALME-3M or SKOV cells); test: FACS on MALME-3M cells (20120529), FITC-labeled anti-HSA antibodies; apparent Kd
[4] = molecular target: HER2 and HER3 on cells (MALME-3M or SKOV cells); test: FACS on SKOV cells (20120803), FITC-labeled anti-HSA antibodies; apparent Kd
[5] = molecular target: HER2 and HER3 on cells (MALME-3M or SKOV cells); test: FACS; column head prints Bmax (MALME 20120603); design: unit not given here
[6] = molecular target: HER2 and HER3 on cells (MALME-3M or SKOV cells); test: FACS on MALME-3M cells, FITC-labeled anti-HSA antibodies; lower end of the range
[7] = molecular target: HER2 and HER3 on cells (MALME-3M or SKOV cells); test: FACS on MALME-3M cells, FITC-labeled anti-HSA antibodies; upper end of the range

Sequence of CD19 on Raji B cells (P15391 20-556 limits assumed): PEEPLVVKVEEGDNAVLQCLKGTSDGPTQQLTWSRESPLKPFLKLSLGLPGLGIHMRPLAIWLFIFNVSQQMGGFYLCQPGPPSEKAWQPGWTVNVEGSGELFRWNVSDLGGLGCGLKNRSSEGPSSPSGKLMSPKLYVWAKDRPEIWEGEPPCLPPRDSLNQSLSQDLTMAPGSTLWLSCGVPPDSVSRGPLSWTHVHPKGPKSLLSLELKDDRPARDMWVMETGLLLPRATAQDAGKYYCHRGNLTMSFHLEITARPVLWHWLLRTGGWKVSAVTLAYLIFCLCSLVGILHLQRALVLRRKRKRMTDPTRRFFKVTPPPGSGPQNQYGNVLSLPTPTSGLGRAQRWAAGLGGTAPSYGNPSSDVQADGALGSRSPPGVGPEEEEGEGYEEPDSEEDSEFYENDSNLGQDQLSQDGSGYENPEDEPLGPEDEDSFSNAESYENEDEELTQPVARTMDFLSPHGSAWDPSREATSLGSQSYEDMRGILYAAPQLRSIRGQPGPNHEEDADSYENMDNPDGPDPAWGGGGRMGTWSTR
Sequence of CD3 on Jurkat T cells (P07766 23-207): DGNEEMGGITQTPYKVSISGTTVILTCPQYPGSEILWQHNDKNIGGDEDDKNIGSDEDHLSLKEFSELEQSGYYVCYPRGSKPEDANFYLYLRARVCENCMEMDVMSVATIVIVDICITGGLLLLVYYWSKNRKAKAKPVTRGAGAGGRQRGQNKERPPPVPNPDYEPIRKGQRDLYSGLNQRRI

| Whole cell bridging by FACS (Jurkat-violet + RAJI-FarRed): % of events labeled both violet and Far-red; needs binding of both CD3 and CD19 (% of total cells) (CD3 on Jurkat T cells) | Whole cell bridging by FACS (Jurkat-violet + RAJI-FarRed): % of events labeled both violet and Far-red; needs binding of both CD3 and CD19 (% of total cells) (CD19 on Raji B cells) | EC50 (read off the curve) [1] [nM] | Bmax [2] | Kd [3] [nM] | Kd [4] [nM] | Bmax [5] | Kd [6] [nM] | Kd [7] [nM] | Substance |
| --- | --- | --- | --- | --- | --- | --- | --- | --- | --- |
| 21 | 21 |  |  |  |  |  |  |  | v891: anti-CD3xCD19 BiTE control (bispecific antibody) |
|  |  | 10 | 1470 | 12000 | 10.7 | 6580 | 5 | 55 | v1087: benchmark control variant of MM-111 (anti-Her3 H3 scFv - AAS - albumin - AAAL - anti-Her2 B1D2 scFv) (bispecific antibody) |
